Laboratory results from patent US20170335004A1 (LA TROBE UNIVERSITY, published 2017).

Legend:
[1] = molecular target: T1, hFn14-Fc (Fc-tagged ectodomain of human Fn14) (human, UniProt Q9NP84 29-78); experiment: SPR (ProteOn XPR36), hFab amine-coupled, hFn14-Fc as analyte, Langmuir fit, average of 5 measurements
T1 construct: also called Fc-tagged hFn14; not shown: Fc tag
Procedure: The affinity of wildtype Fab clone 6.5 and the light chain shuffled mutants was measured by surface Plasmon resonance (SPR) using the ProteOn XPR36TM instrument (BioRad). Individual channels of a six channel GLC chip were coupled with the relevant hFab ligand at 5 μg/ml in 0.1M sodium acetate buffer pH 4.5 using amine coupling according to the manufacturer's instructions. Five dilutions of analyte hFn14-Fc were prepared in PBS containing 0.005% Tween20 (running buffer) and allowed to flow over the coupled hFab at […] flow rate for 500 seconds to evaluate the “on rate” (ka). This was followed by flow with the running buffer for 1200 seconds to evaluate the “off rate” (kd). This process was repeated until the analyte dilution series allowed a good kinetic fit using the Langmuir statistical model for analysing the ka and kd, where the affinity constant (KD) is the kd/ka. The best fit data was analysed using the ProteOn software measured by Chi2, where the lowest value is the best fit of the model to the SPR binding curves.

BSA = molecular target: T2, BSA (bovine, UniProt P02769); experiment: ELISA of purified hFab 6.5 on a panel of coated antigens, absorbance 450 nm
T2 construct: also called bovine serum albumin
T2 sequence (P02769 25-607 limits assumed): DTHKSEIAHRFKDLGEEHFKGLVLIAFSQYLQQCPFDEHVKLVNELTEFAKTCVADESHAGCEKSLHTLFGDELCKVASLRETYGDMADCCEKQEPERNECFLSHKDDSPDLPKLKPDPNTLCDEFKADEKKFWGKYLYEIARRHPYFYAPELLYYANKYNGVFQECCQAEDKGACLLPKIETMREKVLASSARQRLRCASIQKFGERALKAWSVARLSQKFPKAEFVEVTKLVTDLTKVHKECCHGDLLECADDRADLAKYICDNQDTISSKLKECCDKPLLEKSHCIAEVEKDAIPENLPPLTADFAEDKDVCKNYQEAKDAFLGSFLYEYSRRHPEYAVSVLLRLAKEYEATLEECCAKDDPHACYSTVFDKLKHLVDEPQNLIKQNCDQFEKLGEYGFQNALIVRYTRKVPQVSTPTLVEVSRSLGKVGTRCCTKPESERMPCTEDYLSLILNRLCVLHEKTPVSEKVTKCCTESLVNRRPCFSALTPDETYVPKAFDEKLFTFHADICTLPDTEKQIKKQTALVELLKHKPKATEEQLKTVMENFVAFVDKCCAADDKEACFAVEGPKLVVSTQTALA

T1 sequence (Q9NP84 29-78): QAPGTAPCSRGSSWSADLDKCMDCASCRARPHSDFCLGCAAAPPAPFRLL

B1: hFab 6.5 (Fab, V domains shown)
VH: QVQLVQSGGGLVKPGGSLRLSCAASGFTFTSYAMSWVRQAPGKGLEWVSAISGSGGSTYYADSVKGRFTISRDNPKNTLYLQMNSLRAEDTAVYYCARVRANYYYGMDVWGQGTLVTVSS
VL: LTQSPGTLSLSPGERATLSCRASQSVSSSTLAWYQQKPGQTPRLLIYGASTRATGIPARFSGSGSGTDFTLTISRLEPEDFAVYYCQQYGSSRLTFGGGTKVEIKR
notes: Human Fab from a phage display library, kappa light chain, expressed in the E. coli periplasm; also called clone 6.5; wildtype Fab 6.5
Work on B1 yielded a Kd [1] of 22.1 nM, a koff [1] of 0.00207 s⁻¹ and a kon [1] of 94000 M⁻¹ s⁻¹. B1: no binding (tested: 10 ug/ml) (BSA).
